Source: patent US20080020978A1 (Amgen, published 2008)
Where a chain is given by its changes, count along the chain named. Square brackets hold non-standard residues; d marks the D form. Ends that are not written are not given here. 1Nal = N[C@@H](Cc1cccc2ccccc12)C(=O)O; Igl = N[C@H](C(=O)O)C1Cc2ccccc2C1; hArg = N=C(N)NCCCC[C@H](N)C(=O)O; Cit = NC(=O)NCCC[C@H](N)C(=O)O; Phg = N[C@H](C(=O)O)c1ccccc1; Nle = CCCC[C@H](N)C(=O)O; Aze = O=C(O)[C@@H]1CCN1; Ahx = NCCCCCC(=O)O

B1: PEG-peptide of SEQ ID NO 929 (peptide)
peptide: WVTHXLAGLLSXSGGVVXKNFVPTDVGPXAF
modifications: Ac-WVTH[Cit]LAGLLS[Cit]SGGVV[hArg]KNFVPTDVGP[Bip]AF-NH2; PEG-conjugated (Table 2C: in most cases at Lys^25)
B2: PEG-peptide of SEQ ID NO 927 (peptide)
peptide: B1 peptide
modifications: Ac-WVTH[Cit]LAGLLS[Cit]SGGVV[hArg]KNFVPTDVGP[1-Nal]AF-NH2; PEG-conjugated (Table 2C: in most cases at Lys^25)
B3: PEG-peptide of SEQ ID NO 926 (peptide)
peptide: B1 peptide
modifications: Ac-WVTH[hArg]LAGLLS[Cit]SGGVV[hArg]KNFVPTDVGP[2-Nal]AF-NH2; PEG-conjugated (Table 2C: in most cases at Lys^25)
B4: SEQ ID NO 918 (peptide)
peptide: Ac-WVTH[Cit]LAGLLS[Cit]SGGVVRKNFVPTDVGPKAF-NH2
SMILES: CC(=O)N[C@@H](Cc1c[nH]c2ccccc12)C(=O)N[C@H](C(=O)N[C@H](C(=O)N[C@@H](Cc1c[nH]cn1)C(=O)N[C@@H](CCCNC(N)=O)C(=O)N[C@@H](CC(C)C)C(=O)N[C@@H](C)C(=O)NCC(=O)N[C@@H](CC(C)C)C(=O)N[C@@H](CC(C)C)C(=O)N[C@@H](CO)C(=O)N[C@@H](CCCNC(N)=O)C(=O)N[C@@H](CO)C(=O)NCC(=O)NCC(=O)N[C@H](C(=O)N[C@H](C(=O)N[C@@H](CCCNC(=N)N)C(=O)N[C@@H](CCCCN)C(=O)N[C@@H](CC(N)=O)C(=O)N[C@@H](Cc1ccccc1)C(=O)N[C@H](C(=O)N1CCC[C@H]1C(=O)N[C@H](C(=O)N[C@@H](CC(=O)O)C(=O)N[C@H](C(=O)NCC(=O)N1CCC[C@H]1C(=O)N[C@@H](CCCCN)C(=O)N[C@@H](C)C(=O)N[C@@H](Cc1ccccc1)C(N)=O)C(C)C)[C@@H](C)O)C(C)C)C(C)C)C(C)C)[C@@H](C)O)C(C)C
B5: PEG-peptide of SEQ ID NO 928 (peptide)
peptide: B1 peptide with F21X
modifications: Ac-WVTH[Cit]LAGLLS[Cit]SGGVV[hArg]KN[pI-Phe]VPTDVGP[pI-Phe]AF-NH2; PEG-conjugated (Table 2C: in most cases at Lys^25)
B6: SEQ ID NO 916 (peptide)
peptide: C[Ahx]WVTHRLAGLLSRSGGVVRKNFVPTDVGPFAF-NH2
modifications: N-terminus assumed
SMILES: CC(C)C[C@H](NC(=O)CNC(=O)[C@H](C)NC(=O)[C@H](CC(C)C)NC(=O)[C@H](CCCNC(=N)N)NC(=O)[C@H](Cc1c[nH]cn1)NC(=O)[C@@H](NC(=O)[C@@H](NC(=O)[C@H](Cc1c[nH]c2ccccc12)NC(=O)CCCCCNC(=O)[C@@H](N)CS)C(C)C)[C@@H](C)O)C(=O)N[C@@H](CC(C)C)C(=O)N[C@@H](CO)C(=O)N[C@@H](CCCNC(=N)N)C(=O)N[C@@H](CO)C(=O)NCC(=O)NCC(=O)N[C@H](C(=O)N[C@H](C(=O)N[C@@H](CCCNC(=N)N)C(=O)N[C@@H](CCCCN)C(=O)N[C@@H](CC(N)=O)C(=O)N[C@@H](Cc1ccccc1)C(=O)N[C@H](C(=O)N1CCC[C@H]1C(=O)N[C@H](C(=O)N[C@@H](CC(=O)O)C(=O)N[C@H](C(=O)NCC(=O)N1CCC[C@H]1C(=O)N[C@@H](Cc1ccccc1)C(=O)N[C@@H](C)C(=O)N[C@@H](Cc1ccccc1)C(N)=O)C(C)C)[C@@H](C)O)C(C)C)C(C)C)C(C)C
B7: SEQ ID NO 925 (peptide)
peptide: Ac-WVTH[hArg]LAGLLS[Cit]SGGVV[hArg]KNFVPTDVGPFA[Phg]-NH2
SMILES: CC(=O)N[C@@H](Cc1c[nH]c2ccccc12)C(=O)N[C@H](C(=O)N[C@H](C(=O)N[C@@H](Cc1c[nH]cn1)C(=O)N[C@@H](CCCCNC(=N)N)C(=O)N[C@@H](CC(C)C)C(=O)N[C@@H](C)C(=O)NCC(=O)N[C@@H](CC(C)C)C(=O)N[C@@H](CC(C)C)C(=O)N[C@@H](CO)C(=O)N[C@@H](CCCNC(N)=O)C(=O)N[C@@H](CO)C(=O)NCC(=O)NCC(=O)N[C@H](C(=O)N[C@H](C(=O)N[C@@H](CCCCNC(=N)N)C(=O)N[C@@H](CCCCN)C(=O)N[C@@H](CC(N)=O)C(=O)N[C@@H](Cc1ccccc1)C(=O)N[C@H](C(=O)N1CCC[C@H]1C(=O)N[C@H](C(=O)N[C@@H](CC(=O)O)C(=O)N[C@H](C(=O)NCC(=O)N1CCC[C@H]1C(=O)N[C@@H](Cc1ccccc1)C(=O)N[C@@H](C)C(=O)N[C@H](C(N)=O)c1ccccc1)C(C)C)[C@@H](C)O)C(C)C)C(C)C)C(C)C)[C@@H](C)O)C(C)C
B8: SEQ ID NO 940 (peptide)
peptide: Ac-WVTH[Cit]LAGLLS[Cit]SGGV[Nle]RKNFVPTDVGPFAF-NH2
SMILES: CCCC[C@H](NC(=O)[C@@H](NC(=O)CNC(=O)CNC(=O)[C@H](CO)NC(=O)[C@H](CCCNC(N)=O)NC(=O)[C@H](CO)NC(=O)[C@H](CC(C)C)NC(=O)[C@H](CC(C)C)NC(=O)CNC(=O)[C@H](C)NC(=O)[C@H](CC(C)C)NC(=O)[C@H](CCCNC(N)=O)NC(=O)[C@H](Cc1c[nH]cn1)NC(=O)[C@@H](NC(=O)[C@@H](NC(=O)[C@H](Cc1c[nH]c2ccccc12)NC(C)=O)C(C)C)[C@@H](C)O)C(C)C)C(=O)N[C@@H](CCCNC(=N)N)C(=O)N[C@@H](CCCCN)C(=O)N[C@@H](CC(N)=O)C(=O)N[C@@H](Cc1ccccc1)C(=O)N[C@H](C(=O)N1CCC[C@H]1C(=O)N[C@H](C(=O)N[C@@H](CC(=O)O)C(=O)N[C@H](C(=O)NCC(=O)N1CCC[C@H]1C(=O)N[C@@H](Cc1ccccc1)C(=O)N[C@@H](C)C(=O)N[C@@H](Cc1ccccc1)C(N)=O)C(C)C)[C@@H](C)O)C(C)C
B9: SEQ ID NO 910 (peptide)
peptide: Ac-[1Nal]VEH[hArg]LKGLLS[Cit]SG[Aze]VV[hArg]KNFVPTDVGPFAF-NH2
SMILES: CC(=O)N[C@@H](Cc1cccc2ccccc12)C(=O)N[C@H](C(=O)N[C@@H](CCC(=O)O)C(=O)N[C@@H](Cc1c[nH]cn1)C(=O)N[C@@H](CCCCNC(=N)N)C(=O)N[C@@H](CC(C)C)C(=O)N[C@@H](CCCCN)C(=O)NCC(=O)N[C@@H](CC(C)C)C(=O)N[C@@H](CC(C)C)C(=O)N[C@@H](CO)C(=O)N[C@@H](CCCNC(N)=O)C(=O)N[C@@H](CO)C(=O)NCC(=O)N1CC[C@H]1C(=O)N[C@H](C(=O)N[C@H](C(=O)N[C@@H](CCCCNC(=N)N)C(=O)N[C@@H](CCCCN)C(=O)N[C@@H](CC(N)=O)C(=O)N[C@@H](Cc1ccccc1)C(=O)N[C@H](C(=O)N1CCC[C@H]1C(=O)N[C@H](C(=O)N[C@@H](CC(=O)O)C(=O)N[C@H](C(=O)NCC(=O)N1CCC[C@H]1C(=O)N[C@@H](Cc1ccccc1)C(=O)N[C@@H](C)C(=O)N[C@@H](Cc1ccccc1)C(N)=O)C(C)C)[C@@H](C)O)C(C)C)C(C)C)C(C)C)C(C)C

These binders were tested against CGRP1 receptor (CRLR/RAMP1 complex) of human neuroblastoma SK-N-MC cells (human, UniProt Q16602 23-461; O60894 27-148) (assay: cell-based or functional assay).
Chain of CGRP1 receptor (CRLR/RAMP1 complex) of human neuroblastoma SK-N-MC cells (Q16602 23-461, chain 1 of 2): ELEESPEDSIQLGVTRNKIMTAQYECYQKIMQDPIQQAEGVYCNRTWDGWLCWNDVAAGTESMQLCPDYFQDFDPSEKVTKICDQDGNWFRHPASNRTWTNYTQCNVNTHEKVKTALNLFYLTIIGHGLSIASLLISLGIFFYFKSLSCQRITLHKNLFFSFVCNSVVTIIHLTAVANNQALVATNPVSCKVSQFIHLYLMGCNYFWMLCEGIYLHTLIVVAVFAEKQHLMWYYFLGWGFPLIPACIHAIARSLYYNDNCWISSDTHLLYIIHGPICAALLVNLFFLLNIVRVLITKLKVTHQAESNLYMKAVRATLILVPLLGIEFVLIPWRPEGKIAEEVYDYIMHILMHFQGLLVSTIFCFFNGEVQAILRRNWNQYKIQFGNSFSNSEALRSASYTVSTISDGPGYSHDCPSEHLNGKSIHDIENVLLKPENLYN
Chain of CGRP1 receptor (CRLR/RAMP1 complex) of human neuroblastoma SK-N-MC cells (O60894 27-148, chain 2 of 2): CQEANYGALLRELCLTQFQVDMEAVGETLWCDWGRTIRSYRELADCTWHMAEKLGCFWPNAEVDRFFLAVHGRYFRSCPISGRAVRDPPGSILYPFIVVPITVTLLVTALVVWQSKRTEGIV

Peptide IC50 [nM]	PEG-peptide IC50 [nM]	Binder
0.85	–	WVTHXLAGLLSXSGGVVRKNFVPTDVGXFAF (Ac-WVTH[Cit]LAGLLS[Cit]SGGVVRKNFVPTDVG[Oic]FAF-NH2) [SEQ ID NO 920]
0.93	–	WVTHXLAGLLSXSGGVVRKNFVXTDVGXFAF (Ac-WVTH[Cit]LAGLLS[Cit]SGGVVRKNFV[Oic]TDVG[Oic]FAF-NH2) [SEQ ID NO 921]
2.41	–	WVTHXLAGLLSXSGGVVXKNFVPTDVGPFAF (Ac-WVTH[Cit]LAGLLS[hArg]SGGVV[BhArg]KNFVPTDVGPFAF-NH2) [SEQ ID NO 936]
–	5.58	B1
1.31	–	WVTHXLAGLLSXSGGVVXKNFVXTDVGXFAF (Ac-WVTH[Cit]LAGLLS[Cit]SGGVV[hArg]KNFV[Oic]TDVG[Oic]FAF-NH2) [SEQ ID NO 932]
1.39	–	WVTHXLAGLLSXSGGVVXKNFVPTDVGPFAF (Ac-WVTH[Cit]LAGLLS[Cit]SGGVV[3G-Dpr]KNFVPTDVGPFAF-NH2) [SEQ ID NO 938]
–	2.54	B2
2.37	–	WVTHXLAGLLSXSGGVVXKNFVPTDVGPFAF (Ac-WVTH[Cit]LAGLLS[hArg]SGGVV[Guf]KNFVPTDVGPFAF-NH2) [SEQ ID NO 935]
–	7.76	WVTHXLAGLLSXSGGVVXKNFVPTDVGPFAF (Ac-WVTH[Cit]LAGLLS[Cit]SGGVV[hArg](30 KPEGald)NFVPTDVGPFAF-NH2) [PEG-peptide of SEQ ID NO 941]
1.76	–	WVTHXLAGLLSXSGGVVXKNFVPTDVGPXAF (Ac-WVTH[Cit]LAGLLS[Cit]SGGVV[hArg]KNFVPTDVGP[Bip]AF-NH2) [SEQ ID NO 929]
1.28	–	WVTHXLAGLLSXSGGVVXKNFVPTDVGPXAF (Ac-WVTH[Cit]LAGLLS[Cit]SGGVV[hArg]KNFVPTDVGP[1-Nal]AF-NH2) [SEQ ID NO 927]
–	2.39	B3
2.18	–	WVTHXLAGLLSXSGGVVXKNFVPTDVGPXAF (Ac-WVTH[hArg]LAGLLS[Cit]SGGVV[hArg]KNFVPTDVGP[1-Nal]AF-NH2) [SEQ ID NO 924]
2.24	–	WVTHXLAGLLSXSGGVVRKNFVPTDVGPFAX (Ac-WVTH[Cit]LAGLLS[Cit]SGGVVRKNFVPTDVGPFA[pI-Phe]-NH2) [SEQ ID NO 923]
2.87	–	WVTHXLAGLLSXSGGVVXKNFVPTDVGPFAF (Ac-WVTH[Cit]LAGLLS[Cit]SGGVV[Cit]KNFVPTDVGPFAF-NH2) [SEQ ID NO 937]
0.88	–	WVTHXLAGLLSXSGGVVXKNFVPTDVGXXAF (Ac-WVTH[Cit]LAGLLS[Cit]SGGVV[hArg]KNFVPTDVG[Oic][1-Nal]AF-NH2) [SEQ ID NO 933]
0.88	–	WVTHXLAGLLSXSGGVVXKNFVPTDVGPXAF (Ac-WVTH[hArg]LAGLLS[Cit]SGGVV[hArg]KNFVPTDVGP[2-Nal]AF-NH2) [SEQ ID NO 926]

Peptide IC50 [nM]	PEG-peptide IC50 [nM]	Binder
1.65	–	WVTHXLAGLLSXSGGVVXKNFVPTDVGXXAF (Ac-WVTH[Cit]LAGLLS[Cit]SGGVV[hArg]KNFVPTDVG[Oic][2-Nal]AF-NH2) [SEQ ID NO 934]
4.58	–	Ac-WVTH[Cit]LAGLLS[Cit]SGGVV[hArg]KNFVPTDVGP[Igl]AF-NH2 [SEQ ID NO 930]
1.48	–	B4
1	–	Ac-WVTHRLAGLLSRSGGVVRKNFVPTDVGPKAF-NH2 [SEQ ID NO 917]
1.16	–	WVTHXLAGLLSXSGGVVXKNXVPTDVGPXAF (Ac-WVTH[Cit]LAGLLS[Cit]SGGVV[hArg]KN[pI-Phe]VPTDVGP[pI-Phe]AF-NH2) [SEQ ID NO 928]
–	11.4	B5
–	126	Ac-WVTH[Cit]LAGLLS[Cit]SGGVV[hArg]KNFVPTDVGP[Igl]AF-NH2 (also: PEG-conjugated, in most cases at Lys25) [PEG-peptide of SEQ ID NO 930]
1.8	–	B6
1.15	–	Ac-WVTHRLAGLLSRSGGVVRKNFVPTDVGSKAF-NH2 [SEQ ID NO 915]
6.78	–	B7
1.16	–	WVTHRLAGLLSRSGGVVRKNXVPTDVGPFAF (Ac-WVTHRLAGLLSRSGGVVRKN[2-Nal]VPTDVGPFAF-NH2) [SEQ ID NO 912]
2.21	–	WVTHXLAGLLSXSGGVVRKNXVPTDVGPFAX (Ac-WVTH[Cit]LAGLLS[Cit]SGGVVRKN[pI-Phe]VPTDVGPFA[pI-Phe]-NH2) [SEQ ID NO 922]
1.72	–	WVTHRLAGLLSRSGGVVRKNFVPTDVGPFAX (Ac-WVTHRLAGLLSRSGGVVRKNFVPTDVGPFA[2-Nal]-NH2) [SEQ ID NO 913]
33.1	–	WVTHRLAGLLSRSGGVVRKNFVPTDVGPFAX (Ac-WVTHRLAGLLSRSGGVVRKNFVPTDVGPFA[1-Nal]-NH2) [SEQ ID NO 914]
1.85	–	B8
2.31	–	B9
